Data published in the supplement of paper PMC9112550, “Optimization of the antimicrobial peptide Bac7 by deep mutational scanning” (BMC Biology, 2022).

Test system: Escherichia coli TOP10
Assay: shrunken log2 fold change of peptide-encoding DNA abundance (4.5 h post-induction vs induction); higher = less antimicrobial activity (less host growth inhibition)
Settings: time post-induction: 4.5 h; library: site-saturation at positions 5, 18, 19, 20
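Also: peptides expressed intracellularly from a pBAD plasmid library in pooled LB shake-flask culture, induced with 0.3% L-arabinose, DNA abundance read by NGS, three biological replicates, DESeq2 with apeglm shrinkage.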

| Sequence | shrunken log2 fold change |
| --- | --- |
| RRIRERPPRLPRPRPRPHLSPRP | -0.19 |
| RRIRERPPRLPRPRPRPHMIPRP | 0.0284 |
| RRIRERPPRLPRPRPRPHMRPRP | 0.0528 |
| RRIRERPPRLPRPRPRPHNKPRP | -0.787 |
| RRIRERPPRLPRPRPRPHNWPRP | -0.363 |
| RRIRERPPRLPRPRPRPHPKPRP | 0.0177 |
| RRIRERPPRLPRPRPRPHQQPRP | 0.119 |
| RRIRERPPRLPRPRPRPHQYPRP | -0.00989 |
| RRIRERPPRLPRPRPRPHRPPRP | -0.123 |
| RRIRERPPRLPRPRPRPHRTPRP | -5.56e-05 |
| RRIRERPPRLPRPRPRPHTNPRP | -0.466 |
| RRIRERPPRLPRPRPRPHWHPRP | -0.298 |
| RRIRERPPRLPRPRPRPHWIPRP | -0.117 |
| RRIRERPPRLPRPRPRPHWKPRP | -0.0167 |
| RRIRERPPRLPRPRPRPICCPRP | -0.133 |
| RRIRERPPRLPRPRPRPIDAPRP | 0.0409 |
| RRIRERPPRLPRPRPRPIDKPRP | -0.321 |
| RRIRERPPRLPRPRPRPIDPPRP | 0.0954 |
| RRIRERPPRLPRPRPRPIFQPRP | -0.00561 |
| RRIRERPPRLPRPRPRPIFTPRP | -0.195 |
| RRIRERPPRLPRPRPRPIGYPRP | -0.00962 |
| RRIRERPPRLPRPRPRPIHCPRP | -0.118 |
| RRIRERPPRLPRPRPRPIHYPRP | -0.0107 |
| RRIRERPPRLPRPRPRPIIAPRP | -0.106 |
| RRIRERPPRLPRPRPRPIISPRP | -0.209 |

| Sequence | shrunken log2 fold change |
| --- | --- |
| RRIRERPPRLPRPRPRPIKEPRP | 0.0101 |
| RRIRERPPRLPRPRPRPILLPRP | -0.336 |
| RRIRERPPRLPRPRPRPILYPRP | -0.615 |
| RRIRERPPRLPRPRPRPIMFPRP | -0.193 |
| RRIRERPPRLPRPRPRPIMLPRP | -0.227 |
| RRIRERPPRLPRPRPRPIMRPRP | -0.102 |
| RRIRERPPRLPRPRPRPIPGPRP | -0.124 |
| RRIRERPPRLPRPRPRPIQHPRP | -0.529 |
| RRIRERPPRLPRPRPRPIQLPRP | -0.446 |
| RRIRERPPRLPRPRPRPIRMPRP | -0.00149 |
| RRIRERPPRLPRPRPRPIRSPRP | -0.112 |
| RRIRERPPRLPRPRPRPISRPRP | -0.0122 |
| RRIRERPPRLPRPRPRPITCPRP | 0.0303 |
| RRIRERPPRLPRPRPRPITGPRP | -0.0908 |
| RRIRERPPRLPRPRPRPIVMPRP | -0.86 |
| RRIRERPPRLPRPRPRPIWLPRP | -0.0129 |
| RRIRERPPRLPRPRPRPIYYPRP | -0.726 |
| RRIRERPPRLPRPRPRPKDTPRP | -0.115 |
| RRIRERPPRLPRPRPRPKDVPRP | -0.152 |
| RRIRERPPRLPRPRPRPKESPRP | 0.0252 |
| RRIRERPPRLPRPRPRPKFVPRP | -0.287 |
| RRIRERPPRLPRPRPRPKGYPRP | 0.016 |
| RRIRERPPRLPRPRPRPKHLPRP | -0.202 |
| RRIRERPPRLPRPRPRPKHWPRP | 0.0518 |
| RRIRERPPRLPRPRPRPKLIPRP | -0.0786 |

| Sequence | shrunken log2 fold change |
| --- | --- |
| RRIRERPPRLPRPRPRPKPAPRP | 0.666 |
| RRIRERPPRLPRPRPRPKRSPRP | -0.0414 |
| RRIRERPPRLPRPRPRPKRTPRP | 0.108 |
| RRIRERPPRLPRPRPRPKRWPRP | 0.35 |
| RRIRERPPRLPRPRPRPKSEPRP | 0.196 |
| RRIRERPPRLPRPRPRPKSPPRP | 0.163 |
| RRIRERPPRLPRPRPRPKSRPRP | 0.0203 |
| RRIRERPPRLPRPRPRPKVLPRP | 0.0059 |
| RRIRERPPRLPRPRPRPKWWPRP | 0.397 |
| RRIRERPPRLPRPRPRPKYNPRP | -0.7 |
| RRIRERPPRLPRPRPRPLAMPRP | -0.246 |
| RRIRERPPRLPRPRPRPLAVPRP | -0.0594 |
| RRIRERPPRLPRPRPRPLEGPRP | -0.363 |
| RRIRERPPRLPRPRPRPLFPPRP | -0.264 |
| RRIRERPPRLPRPRPRPLFQPRP | -0.271 |
| RRIRERPPRLPRPRPRPLGEPRP | 0.0918 |
| RRIRERPPRLPRPRPRPLGKPRP | 0.189 |
| RRIRERPPRLPRPRPRPLGSPRP | -0.0249 |
| RRIRERPPRLPRPRPRPLHKPRP | -0.0653 |
| RRIRERPPRLPRPRPRPLISPRP | -0.0142 |
| RRIRERPPRLPRPRPRPLLDPRP | -0.0911 |
| RRIRERPPRLPRPRPRPLLKPRP | -0.439 |
| RRIRERPPRLPRPRPRPLLWPRP | -0.0136 |
| RRIRERPPRLPRPRPRPLQNPRP | -0.116 |
| RRIRERPPRLPRPRPRPLSYPRP | -0.193 |
